Assay results taken from the DeepSol protein solubility set.

Assay: soluble on expression in E. coli; label from the status in PepcDB or PDB records

| Sequence | soluble on expression in E. coli |
| --- | --- |
| MIGNVKMEYASASEEYLTESEMDEYLDDLRSKIPSFIVELLKNNLKNRKLTRPQLDKIVGRVSDLYFGKKPEDKKAAELTNKINDLSQKLDALMKVATISSATKVSDDIKKELNYLDDEKIEVPEISKAVEVPEIIEEPEISIEPVEEPVVEPVKIIEKQTVEPIIEFKEEPKIEKVVSKVPLEIEEGNNMRPELTPAVETTARLQELPEDTLSTMLVFKWLEFLISRVGTGNLIDVLDYYHNLGWVSGKAISKLMKVSKNMKYFHEDIDWKANECMAPEDHVVSLLYIEKLAGRPIAVEELEGMEREINRIKKWAEELQKM | not soluble |
| MAHHHHHHVDDDDKMFSTQVNSSLTSPTGRGSMAAPSLHPSLGPGIGSPGQLHSPISTLSSPINGMGPPFSVISSPMGPHSMSVPTTPTLGFSTGSPQLSSPMNPVSSSEDIKPPLGLNGVLKVPAHPSGNMASFTKHICAICGDRSSGKHYGVYSCEGCKGFFKRTVRKDLTYTCRDNKDCLIDKRQRNRCQYCRYQKCLAMGMKREAVQEERQRGKDRNENEVESTSSANEDMPVERILEAELAVEPKTETYVEANMGLNPSSPNDPVTNICQAADKQLFTLVEWAKRIPHFSELPLDDQVILLRAGWNELLIASFSHRSIAVKDGILLATGLHVHRNSAHSAGVGAIFDRVLTELVSKMRDMQMDKTELGCLRAIVLFNPDSKGLSNPAEVEALREKVYASLEAYCKHKYPEQPGRFAKLLLRLPALRSIGLKCLEHLFFFKLIGDTPIDTFLMEMLEAPHQMT | soluble |
| MRLIKVIITSQKEYSMKKLLSLSAITLSVLAPSAFAAQEVNVYSYRQPFLIEPMFAEFTKETGIKVNVKFAKEGIAEKLAQEGEYSPADVILTSEFSRLFELTEKGLTQPLDSKVIEENIPAQYRDSGDEWFALTQRTRSVYSSRDRLGKLGDDFDYMDLAKPEFKGKICTRSGKHPYNIALVASIIANHGEAEAKAWLEGVKANLARKPQGNDRDQVRAIKEGLCDVSLGNSYYLGAMLNDQEQKSWAEAVYINFPGQNVQGTHVNVSGMAMAKYSPNRENAQKLMEFLTGETAQKMYAEVNYEYPVKPGVQRSALVESWGEFKADSLPLEKIADNNAAAIKLIDEVKFDL | not soluble |
| MGSDKIHHHHHHMHPALWISKTGLDAQQTDISVISNNVANASTIGYKKSRAVFEDLLYQTVNQAGGISADNTKLPNGLNIGAGTKVVATQKMFSQGNMLTTDNSLDLMIEGPGFFEVQLPDGTPAYTRNGQFSLDDTGQIVTPGSGYVLQPAITIPENATGITVSAGGEVSVKIPGTAESQVIGQITMTDFINPSGLDPLGQNLYTETGASGTPIQGTASLDGLGAIRQGALETSNVNVTEELVNLIQSQRIYEMNSKVISAVDQMLAYINQNL | not soluble |
| MSPDFLVTHSGGFHADELLSSVILTRLFPQARLIRSRAPEWITPAPGRIIYDVGGAYDPAAGIFDHHQRGAPQRDDGQPYSSFGLIWKHYGREYLAASGLPDHHVEALHAAFDTGFVLPIDLTDNGALSPSGPLAGLMLPALLETLKPVFDEAEPAADDRAFHAALAIARSFVDAGIAQRAAKLRAEAIVYRAIGDAGQGRILELPRGMPFRPAIVKAGADHLLFVVHPREKDWCVTGIRRAEDGFELRADLPAAWAGLTNGELEAVCGIEGASFCHNGRFVAAAKTRDAALAMAELAVQEALSIGVLEHHHHHH | soluble |
| SNAMKLALITDTSAYLPEAIENHEDVYVLDIPIIIDGKTYIEGQNLTLDQYYDKLAASKELPKTSQPSLAELDDLLCQLEKEGYTHVLGLFIAAGISGFWQNIQFLIEEHPNLTIAFPDTKITSAPQGNLVRNALMCSREGMDFDVIVNKIQSQIEKIEGFIVVNDLNHLVKGGRLSNGSAIIGNLLSIKPVLHFNEEGKIVVYEKVRTEKKALKRLAEIVKEMTADGEYDIAIIHSRAQDKAEQLYNLLAKAGLKDDLEIVSFGGVIATHLGEGAVAFGITPKN | soluble |
| MSFKVKNQSKHLYSLMTKFKRSQLILKHQSNNFASELWNEEDIIRSKQFIELIEDTLLHLKKDTVDFIYDIFIYGKKPCDISYSNSTYYKKLNKAANSFFDHFVWEAPIYKTKELKNDNSHS | soluble |
| MGSDKIHHHHHHMNSEASENRPAHSATGTLWSWHGGNGALIWQLMFSSDAVMGIKRFPQERKAAFFCLESSTGRVLRDDFVLTAGDENETPVGDGWMIGLETVHGSRLVCHTYQPGSPEHLGIWAINLPEARVVWSRPDLTFTANLGDAFLAYRSIVFAGFPERDYVLIDPLSGCELEHLGTAHERPNQLRDAAQSEEERQRILLPDTVFDEAGHVENINHGATSVTVFHRMEPVAEGVPGWVSTLSVSECERLVHEDVMASGEPMPVFNSFLIKDDRLYYIREREFLVSFVVS | not soluble |
| MDKTNLGELINQGKSLLDESVEGFNVGEYHKGAKDGLTVEINKAEEVFNKEDATEEEINLAKESLEGAIARFNSLLIEESTGDFNGNGKIDIGDLAMVSKNIGSTTNTSLDLNKDGSIDEYEISFINHRILNLEHHHHHH | soluble |
| MNSGDNIIKKKSFTFAVRIVNLYKVLSSEIKEFVMSKQLLRSGTSVGANIREALNAQSKPGFIHKLAISQKECDETGYTNNVEFESMNTDAIELLKIVRSIIMTSKKNIIHNSLEHHHHHH | not soluble |
| MSLGELLFNRSFENTKPVSESNSWYTCYRGDVKEAKWWHSGYEEPKWYLLADGRKEEKLPLIFNNYWPSAHGKYFLQIDNRKKQIPTLLVQERIYIEKGKGYTVSGLFSSGGYLSEEKYSKESVPVTIAIYKEGDFHTPLSKTELAVNTNQFILYSSSLDATEYEGWCTYTIEVPAGGCVGIDLLSLMADDVIKGWKRESVERIKNELRPRTMRMPGGCFTSLYDWRSGIGPREERPVSYDTWWGCELLNDVGTFELVDLCEAVGAEPFFCVPVMFNNEYSAADWVDFCNNPTNAQRIAYGRTKPLNVKYWELENEPYRRFDAVTYANRCVDFAKAMKAKDPSIKIAVGNYWLFNKKFKEMLEIVGPYVDLITNRGGTPEEMRADIVILDAYNKAHGTDIKLCHTEFRAPVTRNEGNTDGLNQKDTGGEETLFNASIRWGFAMNMVEQYIAYQNMGGSFFTANYTNLSDGWGECLINTPKEGTYLNAPGVAFALLNSLDIAYPQIIEQEKENQDIVIQAAWNKRRDKLTLVVLNFSQNTQPCKIDFSQIKKSFRVRKGMKIAPQSDLSFNTLQHPEEVKVESFVPSTGKMMKLGLPGNSLIVVELQAERSHGIHVNASTGNEGHHHHHH | not soluble |
| MKVMIEKILLVQTLKRLPRMGWLIKGVQEPESIADHSFGVAFITLVLADVLEKRGKRIDVEKALKMAIVHDLAEAIITDIPLSAQEFVDKDKAEALVFKKVFPEFYELYREYQECSSPEAQLVRIADKLDMILQAYQYELSGNKNLDEFWEAIEEIKRLELSKYLEDILNSVGRLKA | soluble |
| AHHHHHHGSAKRVHLFDWHKEHAKKIEEFAGWEMPIWYSSIKEEHLAVRNAVGVFDVSHMGEILFKGKDALKFLQYTTTNDISKPPAISGTYTLVLNERGAIKDETLVFNMGNNEYLMICDADAFEKLYAWFTYLKKTIEQFTKLDLEIELKTYDIAMFAVQGPKARDLAMDLFGIDINEMWWFQGRWVELDGIKMLLSRSGYTGENGFEVYIEDLNPYHPDEEKRGKPEKALHVWERILEEGQKYGIKPAGLGARDTLRLEAGYTLYGNDTKELQLLSTDIDEVTPLQANLEFAIYWDKDFIGKDALLKQKEKGLGRKLVHFKMLEKSVPREGYKVYANGELIGEVTSGTLSPLLNIGIGIAFVKEEYAKPGVEIEIDIRGTRKKAITVTPPFYDPKKYGLFREE | soluble |
| MSAEPHIVIIGGGFSGAAVAIELLRLAPNGVRVTLLEPRQSPGAGVAYSTAEPTHRINVPAARMQLAGDEEGAFDHWYRHQPAFAVDVQALRPDGSVYPQRGQFGRYVAQRFADAAASSGGRLRHLRDRALAFHQGTVTTDGGLQFKADLLVLAISHPPPSLPPQAEAWRHHPALIANPWQPGALDAIAPHARVAVMGTGLTMADTVVTLDRLGH | not soluble |
| MILVNRETRVLVQGITGREGQFHTKQMLSYGTKIVAGVTPGKGGMEVLGVPVYDTVKEAVAHHEVDASIIFVPAPAAADAALEAAHAGIPLIVLITEGIPTLDMVRAVEEIKALGSRLIGGNCPGIISAEETKIGIMPGHVFKRGRVGIISRSGTLTYEAAAALSQAGLGTTTTVGIGGDPVIGTTFKDLLPLFNEDPETEAVVLIGEIGGFDEEEAAAWVKDHMKKPVVGFIGGRSAPKGKRMGHAGAIIMGNVGTPESKLRAFAEAGIPVADTIDEIVELVKKALG | soluble |
| MIRVMATGVFDILHLGHIHYLKESKKLGDELVVVVARDSTARNNGKIPIFDENSRLALISELKVVDRAILGHEGDMMKTVIEVKPDIITLGYDQKFDEAELQSKINKLGITVKIVRISKYDGQLNSSSSVRKKIMELIGERY | not soluble |
| FTSPAVKRLLGWKQGDEEEKWAEKAVDALVKKLKKKKGAMEELEKALSCPGQPSNCVTIPRSLDGRLQVSHRKGLPHVIYCRVWRWPDLQSHHELKPLECCEFPFGSKQKEVCINPYHYKRVES | soluble |
| MRDYKQLNGLALAYVGDAIYEIYIRDYLVSLGQTKPNVLHRMATHYVSAKAQASLMQAMLAGEMLTEEEEVMYKRGRNAKSHTFAKNADVTTYRVATGFESLMGYLHLTQQKERLEELINWCIKKVGETNEK | not soluble |
| MATIRDVAKRAGVSVATVSRVLNQNGYVNEETERRVRQAMKELNYKPNEVARALFKKTSKTVGLIVPDITNPFFPELVRAVEDVMNIYDYTVILCNSDEKVEKEREYIEVLKQKYVDGVILTTNQFAPEEVEEWDVPIVVLDRPLHERYPSVVADNYEGARLATRHLYEVGCRRIAHIQGPNHVVNAMERFRGYQDEMRALGLGDRQLVIQGNYQLKQAKEAVMAALAEHDMDGIFAGNDAMAVGALKAVQQCGLRVPDDIAIIGYDGIPLTEMTTPELSTVSQPIYEMGAMAARILIKQIEGKPLEKLHYQLPVQLVVRQSTSRRGLT | soluble |
| MKSVGLITEYNPFHNGHQYHINQSKKLTNADVTIAIMSGNFVMRGEPAIYNKFTRAKMALSTADLVIELPATASLSSGDHFAELAVKVADYMSVDTIAFGSENNDIKTLKQLAHSINEIEQSESFSQKVKEGKSYPRIISELLEHHEALASPNNILGISYLKAIAKNAKNINAISIKRENAQHHDSLIQHHQFASGTSIRTSIISQDDHWHHVVPKDIQHLYVTPHITLNQIFPYLKYQIIAMTTDSLKNIYTVTEGFENRLKSNIYEATDFHHFVKLLKTKRYTYTHIQRLLMNVLLNIKPTDVTSNIHAVKVLAMNDRGRQYLKHLKTAFPERQYITNINKSNAHYFTNEIKATHIYNAISGQQQTDFNTPVIQQYR | not soluble |
| GPGSMLGSPSDPPPRDAAGDAAAPVSAASSPSAALPVAAVYSTGSQALQAELHQLRERLRVSDEWNMRLQLQLQELLQLPQNEVQDMRQRMQDPDIAIPLLQCYDAVIHEKTEEVERLRREAVDLQTQLDAFRKDQLDVSNAVRMAEELAKSVQGKAAAEVQRYLEAVRELQEELVRLRIEVTRALDAENIAKQDALRIAERAASLETALEAAKQATSKAEAAREAAERKWTIQEQQAEEQEMGAVVQKAQLQRITQENADKAQELERLRAKMTHALRQASDNHAAHLRIVEERHRMIVEDLRSVNRTQELEVLKLRAQLARCDMTNPSGAGRGTGASSASTSSLRLQSTAELLEAQTRQAQEMELKRLHGEVSALQLQRDDAVRQCEQRTSRLQRDFDQQLQDAQRQLQSAQRSFSEARSRCEELEETKAAQEASLRKARDELRQAQQGGQQYRLSADSSARKLASAQQQLAEASKRFSTLQEEKQSAVRQAHERVSELEANVAQALQEVQSAKERAYAEVEEVQRRYEQLRLQNSKLQDDLREREAALVKKERERSILVAQIGRLEDGLEAHKRQMMESDRRVQQLEQQLIAMRQQQREGFLSLEQVKLQNAQLTRTRDQLAEMLQARSL | not soluble |
